B1: Ab.79 scFv-human IgG Fc (Fc fusion)
chain: DVVMTQSPLSLPVTLGQPASISCRSSQSLVYNDGNTYLTWFQQWPGQSPRRLIYKVSNRDSGVPDRFSGSGSGTDFTLKISRVEAEDIGVYHCMQGTHWPYTFGQGTKLEIKGGGGSGGGGSGGGGSQVQVQESGPGLVKSSETLSLTCTVSGGSFRSYYWSWIRQPPGKGLDYIGYMYYSGTTNYNPSLTNRVSISVDTSKNQFSLKLNSVTAADTAVYYCAREGTFDIWGQGTVVTVSS
notes: Tested as scFv-human IgG Fc; not shown: human IgG Fc
B2: Ab.63 scFv-human IgG Fc (Fc fusion)
chain: QIVLTQSPGTLSLSPGERATLSCRASQSVTRGYLAWYQQKPGQAPRLLFYGASNRATDIPDRFSGSGSGTDFTLIISRLEPEDFAVYYCQQYGISPLTFGGGTKVEIKGGGGSGGGGSGGGGSQVQLHESGPGLVKPSETLSLTCTVSGASISSYYWSWIRQPPGKGLEWIGYIYYSGTTNFNPSLKSRVTISVDTSKNQFSLRLSSVTTADTAVYYCANLALTGFHFDYWGQGTLVTVSS
notes: as for B1
B3: Ab.73 scFv-human IgG Fc (Fc fusion)
chain: DVVMTQSPLSLPVTLGQPASISCRSSQSLGYSDGDTYLIWFLQRPGQSPRRLIYKVSNRDSGVPDRFSGSGSGTDFTLKISRVEAEDVGVYYCMQGTHWPYTFGQGTKLEIKGGGGSGGGGSGGGGSQVQVQESGPGLVKPSETLSLTCTVSTGSFSSHYWSWIRQPPGKSLEYIGYIYYTGTTNYNPSLKSRVTISVDTSKNQFSLNVNSVTAADTAVYYCAREGTFDIWGQGTMVTVSS
notes: as for B1
B4: AMG757 (anti-DLL3 scFv from Amgen's patent, positive control) scFv-human IgG Fc (Fc fusion)
chain: EIVLTQSPGTLSLSPGERVTLSCRASQRVNNNYLAWYQQRPGQAPRLLIYGASSRATGIPDRFSGSGSGTDFTLTISRLEPEDFAVYYCQQYDRSPLTFGCGTKLEIKGGGGSGGGGSGGGGSQVQLQESGPGLVKPSETLSLTCTVSGGSISSYYWSWIRQPPGKCLEWIGYVYYSGTTNYNPSLKSRVTISVDTSKNQFSLKLSSVTAADTAVYYCASIAVTGFYFDYWGQGTLVTVSS
notes: not shown: human IgG Fc
B5: Ab.67 scFv-human IgG Fc (Fc fusion)
chain: DVVVTQSPLSLPVTLGQPASISCRSSQSLVYSDGNTYLNWFQQRPGQSPRRLVYQVSNRDSGVPDRFSGSGSGTDFTLKISGMEAEDAGVYYCMQGTHWPHTFGQGTKLEIKGGGGSGGGGSGGGGSEVHLVESGGGLVQPGGSLKLSCAASGFIFSGSSMHWVRQASGKGLEWIGRIRNKANNYATSYGASVQGRFTMSRDDSKNTAYLQMNSLKAEDTAVYYCTYLSGEFWGQGTLVTVSS
notes: as for B1
B6: Ab.71 scFv-human IgG Fc (Fc fusion)
chain: DIGMTQSPDSLAVSLGERATINCKSSQNVLPNSNKKHYLSWYQQKPGQPPKLLIYLASTRASGVPDRFSGSGSGTDFTLTISSLQAEDVAVYYCQQYYSSPPEWTFGQGTKVEIKGGGGSGGGGSGGGGSQVQLVESGGGVVQPGRSLRLSCVASGFTFSNCGMHWVRQAPGKGLEWVAIIWYDGNIKYYGDSVKGRFTISRDNSKNTLYLQMNSLRVEDTAVYYCGRHDYGGNSFDYWGQGTLVTVSS
notes: as for B1
B7: Ab.55 scFv-human IgG Fc (Fc fusion)
chain: EVVMTQSPLSLPVTLGQPASVSCRSSQSLLYSDGNTYLIWFQQRPGQSPRRLLYKLSTRDSGVPDRFSGSGSGTDFTLKISRVEAEDVGIYYCMQVTHWPYTFGQGTKLEIKGGGGSGGGGSGGGGSQVQLRESGPGLVKPSETLSLTCTVSGDSLKNSYWGWIRQPPGKGLEWIGYIYYSGTSSYNPSLESRVTFSADTSKNQFSLKLSSVTAADTAVYYCSREGSFDVWGRGTLVTVSS
notes: as for B1
B8: Ab.76 scFv-human IgG Fc (Fc fusion)
chain: EIVMTQSPATLSVSPGERATLSCRASQSVSSNLAWYRQKPGQAPRLFIYGAYTRATDIPARFSGSGSGTEFTLTISSLQSEDFAVYYCQQYNNWPFTFGPGTKVDIKGGGGSGGGGSGGGGSEVQMVESGGVLVQPGMSLRLSCAASGFTFDDYAMHWVRQPPGKGLEWVSVISWNSGSIGYADSVKGRFTISRDNAKNSLYLQMNSLRAEDTAFYYCAKDLEGGVMDFDYWGQGTLVTVSS
notes: not shown: human IgG Fc

One assay concerns the target T1, DLL3 on the surface of DLL3-positive cell lines SHP77 and NCI-H82 (UniProt Q9NYJ7 27-618, limits assumed).
T1 construct: whole, on cells; The cell line of each number is named under assay
T1 sequence (looked up): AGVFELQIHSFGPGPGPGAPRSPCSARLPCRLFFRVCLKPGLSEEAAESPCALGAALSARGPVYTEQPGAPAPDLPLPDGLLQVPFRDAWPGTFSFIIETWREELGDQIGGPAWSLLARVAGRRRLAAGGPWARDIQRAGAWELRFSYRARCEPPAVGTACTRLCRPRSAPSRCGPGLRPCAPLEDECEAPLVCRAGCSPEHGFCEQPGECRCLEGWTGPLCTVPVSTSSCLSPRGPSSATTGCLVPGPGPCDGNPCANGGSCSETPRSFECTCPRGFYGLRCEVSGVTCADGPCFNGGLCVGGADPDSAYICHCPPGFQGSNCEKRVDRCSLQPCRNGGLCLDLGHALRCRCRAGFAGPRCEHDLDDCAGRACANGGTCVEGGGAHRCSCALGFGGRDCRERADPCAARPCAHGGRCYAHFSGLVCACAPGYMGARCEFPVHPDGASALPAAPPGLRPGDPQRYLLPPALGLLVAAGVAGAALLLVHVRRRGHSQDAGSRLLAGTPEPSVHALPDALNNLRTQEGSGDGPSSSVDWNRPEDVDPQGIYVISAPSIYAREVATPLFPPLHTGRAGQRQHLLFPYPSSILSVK
Put plainly: flow cytometry on SHP77 cells. A general note: In flow cytometry, cells or beads pass a laser one at a time.
For the molecule B1, the midpoint of the response, the EC50, lay at 0.073 µg/mL.
Same read-out and setting: the result for B2 reads 0.011 µg/mL; that for B3, 0.077 µg/mL.
B4: the EC50 (as a rule, the concentration that produces a half-maximal response) came out at 0.089 µg/mL.
On to B5, for which the concentration for a half-maximal effect (EC50) was 0.14 µg/mL.
Still for that read-out and setting: next, B6: 0.039 µg/mL.
B7 came in with a 50% effective concentration (EC50) of 0.11 µg/mL. This EC50 lies about 2.8-fold higher than the previous one.
B8 had an EC50 of 2.6 µg/mL.

The target of the next assay is T1, DLL3 on the surface of DLL3-positive …. The assay is described as follows: flow cytometry on NCI-H82 cells.
In turn, B1 gave a concentration giving a half-maximal response (EC50) of 0.064 µg/mL.
On the same count and under the same terms, the result for B2 reads 0.012 µg/mL; that for B3, 0.042 µg/mL.
B4 registered a concentration for a half-maximal effect (EC50) of 0.082 µg/mL.
Regarding B5, the EC50 is 0.11 µg/mL.
The molecule B6 showed a half-maximal effective concentration (EC50) of 0.027 µg/mL.
Molecule B7 displayed an EC50 of 0.15 µg/mL.
As for B8, a half-maximal response (EC50) required 0.38 µg/mL.

A further assay has as its target T2, human DLL3 protein (human, UniProt Q9NYJ7 27-492, limits assumed).
T2 construct: Soluble human DLL3 protein used in BLI; also called Delta-like protein 3
T2 sequence (looked up): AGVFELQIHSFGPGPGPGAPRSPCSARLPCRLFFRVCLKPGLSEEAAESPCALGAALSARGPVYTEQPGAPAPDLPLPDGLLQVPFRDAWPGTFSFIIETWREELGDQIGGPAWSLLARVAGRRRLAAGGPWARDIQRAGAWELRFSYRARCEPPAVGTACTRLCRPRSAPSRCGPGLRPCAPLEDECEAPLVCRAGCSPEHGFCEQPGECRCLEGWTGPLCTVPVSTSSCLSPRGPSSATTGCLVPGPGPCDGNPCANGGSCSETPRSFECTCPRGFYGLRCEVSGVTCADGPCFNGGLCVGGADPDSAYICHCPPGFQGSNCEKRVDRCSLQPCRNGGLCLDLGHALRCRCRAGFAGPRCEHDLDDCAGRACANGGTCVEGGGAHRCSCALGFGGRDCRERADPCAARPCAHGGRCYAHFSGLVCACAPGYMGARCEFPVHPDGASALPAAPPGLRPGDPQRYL
The assay is described as follows: BLI, scFv-Fc against human DLL3 protein; koff below the instrument detection limit. Background: Biolayer interferometry detects binding as a change in optical thickness at a sensor tip.
Turning to B3, the off-rate constant (koff) – broadly, a measure of how fast the partners let go of each other – was less than 1e-06 s⁻¹.

The next assay addresses T2, human DLL3 protein. Put plainly: BLI, scFv-Fc against human DLL3 protein.
As to B1, binding was characterised by a dissociation constant (Kd) of 0.487 nM; the dissociation rate constant (koff) was determined as 0.000186 s⁻¹; the kon (as a rule, the rate constant with which the complex forms) stood at 382000 M⁻¹ s⁻¹.
On the same counts, the results for B2 are 1.41 nM, 0.000597 s⁻¹ and 424000 M⁻¹ s⁻¹.
As to B3, the Kd (usually a measure of binding affinity in units of concentration) was less than 0.005 nM and the on-rate constant (kon) stood at 193000 M⁻¹ s⁻¹.
In the case of B4, the equilibrium dissociation constant (Kd) worked out at 0.164 nM, the koff was found to be 3.03e-05 s⁻¹ and the kon came to 185000 M⁻¹ s⁻¹.
On the same counts, the results for B5 are 0.34 nM, 0.000182 s⁻¹ and 534000 M⁻¹ s⁻¹.
On the same counts, the results for B6 are 0.299 nM, 0.000177 s⁻¹ and 591000 M⁻¹ s⁻¹.
B7 had a Kd of 0.197 nM, a koff of 6.31e-05 s⁻¹ and a kon of 320000 M⁻¹ s⁻¹.
On the same counts, the results for B8 are 1.22 nM, 0.000288 s⁻¹ and 236000 M⁻¹ s⁻¹.
